The nanobody polyreactivity screen of Harvey et al. (2022)

Assay: yeast display, Sf9 membrane polyspecificity reagent, FACS + sequencing; frameworks hold sequencing errors
In short: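 Sorting gates, low and high (top ~1%), were placed on anti-HA fluorescence to track expression and on streptavidin fluorescence to track reagent binding. A clone's polyreactivity label is taken from the gate it came out of. The reagent was 10% biotinylated, detergent-solubilized Sf9 membrane, applied for 1 hour at 4 °C to galactose-induced yeast display cells.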

| Sequence | polyreactivity (PSR sort gate) |
| --- | --- |
| QVQLVDSGGGLVQAGGSLRLSCAASGRTFQFYVMGWYRQAPGKERELVASIRSGGSTNYADSVKGRFTISRDNAKNTVYLQMNSLKPEDTAVYYCATESYPADQDIPGSDYWGQGTQVTVSS | low polyreactivity |
| QVQLVDSGGGLVQAGGSLRLSCAASGRTFRYYAMGWYRQAPGKERELVATITGSGGSTYYADSVKGRFTISRDNAKNTVYLQLISLKPEDTAVYYCNARKVRYPYRWYDYWGQGTQVTVSS | high polyreactivity |
| QVQLVDSGGGLVQAGGSLRLSCAASGRTFSGNAMGWYRQAPGKERELVAAIRGGGSTYYADSVKGRFTISRDNAKNTVYLQMNSLKPEDTAVYYCAGRSQVYAPAYYRSKYDYWGQGTQVTVSS | high polyreactivity |
| QVQLVDSGGGLVQAGGSLRLSCAASGRTFVPYAMGWYRQAPGKERELVAAISSGGDTNYADSVKGRFTISRDNAKNTVYLQMTSLKPEDTAVYYCNADSYYYVYGYDMGYWGQGTQVTVSS | low polyreactivity |
| QVQLVDSGGGLVQAGGSLRLSCAASGRTFYDNDMGWYRQAPGKERELVARIRRGGNTKYADSVKGRFTISRDNAKNTVYLQMNSLKPEDTAVYYCNRDYGSKIYDYWGQGSQVTVSS | low polyreactivity |
| QVQLVDSGGGLVQAGGSLRLSCAASGRTIRYNAMGWYRQAPGKERELVAVINSNGGSTYYADSVKGRFTISRDNSKNTVYLQMNSLKPEDTAVYYCAADYIRIQEYDYWGQGTQVTVSS | low polyreactivity |
| QVQLVDSGGGLVQAGGSLRLSCAASGRTISGYAMGWYRQAPGKERELVAAITSRGGRTYYADSVKGRFTISRDNAKNTVYLQMNSLKPEDTAVYYCAAYRRLTLYDYWGQGTQVTVSS | high polyreactivity |
| QVQLVDSGGGLVQAGGSLRLSCAASGRTIVYYAMGWYRQAPGKERELVAAIRSGGSTNYADSVKGRFTISRDNAKNTVYLQMNSLKPEDTAVYYCNAVHYYYYKGDYWGQGTQVTVSS | high polyreactivity |
| QVQLVDSGGGLVQAGGSLRLSCAASGRTLAFNAMGWYRQAPGKERELVAVIRNGTSTNYADSVKGRFTISRDNAKNTVYLQMNSLKPEDTGVYYCNVPYYLPSYLSGYDYWGQGTQVTVSS | low polyreactivity |
| QVQLVDSGGGLVQAGGSLRLSCAASGRTLAGYVMGWYRQAPGKERELVATISNGGSTYYADSVKGRFTISRDNAKNTVYLQMNSLKPEDTAVYYCNRYWYRKHSTDPPVRYRPVGYWGQGTQVTVSS | high polyreactivity |
| QVQLVDSGGGLVQAGGSLRLSCAASGRTLSFYGMGWYRQAPGKERELVAAISSSGSRTYYADSVKGRFTISRDNAKNTVYLQMNSLKPEDTAVYYCNALRIYHHYEYDYWGQGTQVTVSS | high polyreactivity |
| QVQLVDSGGGLVQAGGSLRLSCAASGSIFDANAMGWYRQAPGKERELVAAITFDSGSTHYADSVKGRFTISRDNAQNTVYLQMNSLKPEDTAVYYCAVRDFNSDYDYWGQGTQVTVSS | low polyreactivity |
| QVQLVDSGGGLVQAGGSLRLSCAASGSIFHFYAMGWYREATGKERELVAAITRGGGSTYYADSVKGRFTISRDNAKNTVYLQMNSLKPEDTAVYYCAAYKYYRYNYWGQGTQVTVSS | high polyreactivity |
| QVQLVDSGGGLVQAGGSLRLSCAASGSIFKTYAMGWYRQAPGKERELVATNTRRTGSTYYADSVKGRFTISRDNAMNSVYLQMNSLKPEDPAVYYCAAELYPSWSHTVFHGYNYWGQGTQVTVSS | high polyreactivity |
| QVQLVDSGGGLVQAGGSLRLSCAASGSIFPYNDMGWYRKAPGKERELVARITNGGSTNYADSVKGRFTISRDNAKNTVYLQMNSLKPEDTAVYYCNKDGTQEFAPDGHEYWGQCTQVTVSS | low polyreactivity |
| QVQLVDSGGGLVQAGGSLRLSCAASGSIFYHNAMGWSRQAPGKERELVAAITWSGSTTYYADSVKGRFTISRDNAKNTVYLQMNRLKPEDTAVYYCAVDIYYYSNVHYYYWGQGTQVTVSS | low polyreactivity |
| QVQLVDSGGGLVQAGGSLRLSCAASGSIITYYAMGWYRQAPGKERELVAGISRRGASTYYADSVKGRFTISRDNAKNTVYLQMNSLNPEDTEVYYCAAVPYYYYGFDYWGQGTQVTVSS | high polyreactivity |
| QVQLVDSGGGLVQAGGSLRLSCAASGSILGAKDMGWFRQAPGKERELVATITWNGGGTSYADSVKGRFTISRDNAKNTVYLQMNSLKAEDTAVYYFNALGRDSQALYRYRLVGEFGYWGQGSQVTVSS | low polyreactivity |
| QVQLVDSGGGLVQAGGSLRLSCAASGSILYHYAMGWYRQAPGKERELVAGISWRGGSTYYADSVKGRFTISRDNAKNTVYLQMNSLKPEATAVYYCATQRYPYRFYAFQYYYWGQGTQVTVSS | low polyreactivity |
| QVQLVDSGGGLVQAGGSLRLSCAASGSNITRKAMGWYRQAPGKERELVAAIRKIGGRTYYADSVKGRFTISRDNAKNTVYLQMNSLKPEDTAVYYCAAGGSYYRDDYWGQGTQVTVSS | low polyreactivity |
| QVQLVDSGGGLVQAGGSLRLSCAASGSTFAFYAMVWSRQAPGKERELVAANSSNGVSTYYADSVKGRFTISRDNAKNTVYLQMKSLKPEDTAVYYCARDVYASPRLYTSRYNYWGQGTQVTVSS | low polyreactivity |
| QVQLVDSGGGLVQAGGSLRLSCAASGSTFAPYAMGWSRQAPGKERELVAAISWGGGSTYYADSVKGRFTISRDNAKNTVYLQMNSLKPEDTAVYYCAADYAEYSAEWYEDWGQGTQVTVSS | high polyreactivity |

| Sequence | polyreactivity (PSR sort gate) |
| --- | --- |
| QVQLVDSGGGLVQAGGSLRLSCAASGSTFFFNDLGWSRQAPGKESEFVAGISSSGGSTHYADSVKGRFTISRDKAKNTVYFQMNSLKPEDTAVYYCNTLRNWYYQFDFNYWGQGTQVTVSS | low polyreactivity |
| QVQLVDSGGGLVQAGGSLRLSCAASGSTFGGNAMGWYRQAPGKERELVAAITGSGGRTFYADSVKGRFTISRDNAKNTVYLQMNSLNPEDTAVYYCAADSYIYSVNYWGQGTQLTVSS | low polyreactivity |
| QVQLVDSGGGLVQAGGSLRLSCAASGSTFIYYAMGWYRQAPGKEREFVAAISYRGGSTYYADSVKGRFTISRDNAKNTVYLQMNSLKPEDTAVYYCAASYRKWNDYWGQGTQVTVSS | high polyreactivity |
| QVQLVDSGGGLVQAGGSLRLSCAASGSTFPDNAMGWYRQAPGKERALVAAIRWTGGSTYYADSVKGRFTISRDNAKNTVYLQMNSLKPEDTAVYYCNTAYTVSWRSPYDYWGQGTQVTVSS | high polyreactivity |
| QVQLVDSGGGLVQAGGSLRLSCAASGSTFRRYAMGWYRQAPGKERELVAAITTADITNYADSVKGRFTISRDNAKNTVYLQMNSLKPEDTAVYYCAAPVAYRGSRNFIYRYNYWGQGTQVTVSS | high polyreactivity |
| QVQLVDSGGGLVQAGGSLRLSCAASGSTFRVNAMGWYRQAPGKERELGAAISGSGSGTYYADSVKGRFTISRDNAKNTVYLLMNSLKPEDTAVYYCAKVPKSRGYVGGMDYWGQGTQVTVSS | low polyreactivity |
| QVQLVDSGGGLVQAGGSLRLSCAASGSTFTTNGMGGYRQAPGKERELVAAITRGGSTNYADSVKGRFTISRDNAKNTVFLQMNSLKPEDTAVYYCAAQNYWYYPRRFDYWGQGTQVTVSS | high polyreactivity |
| QVQLVDSGGGLVQAGGSLRLSCAASGSTFWFYAMGWYRQAPGNERELVAVISNSGSTYYADSVKGRFRISRDNAKNTVYLQMNSLKPEDTAVYYCNKDGGGDSYWYDYWGQGTQVTVSS | low polyreactivity |
| QVQLVDSGGGLVQAGGSLRLSCAASGSTFYFYAMGWYRQAPGKQRELVAAITWTDGDTYYADSVKGRFTISRDIAKNTVYLQMNSLKPEDTAVYYCATDSFWYEYDYWGQGTQVTVSS | high polyreactivity |
| QVQLVDSGGGLVQAGGSLRLSCAASGSTFYGYAMGWYRQAPGKERELVATISSSGAITYYADSVKWRFTISRDNAKNTVYLQMNRLKPEDPAVYYCARTGSLLSQVWYNYWGQGTQVTVSS | low polyreactivity |
| QVQLVDSGGGLVQAGGSLRLSCAASGSTSLKNAMGWSRQAPGKERELVAAISSGGSTYYADSVKGRFTISRDNAKNTVYLLMNSLKPEDTAVYYCAAKYLRGLGYWGQGTQVTVSS | high polyreactivity |
| QVQLVDSGGGLVQAGGSLRLSCAASGSTVAYYAMGLYRQPTVKERELVAAITRGGSTYYADSVKGRFTISRDNAMNTVYLHLNSLKPEDTAVYYCSAEFVVQYYVYGYTLGYDYWGQGTQVTVSS | high polyreactivity |
| QVQLVDSGGGLVQAGGSLRLSCAASGYTFDWYNRGWYRQAPGKERELVAAISASGVRTYYADSVKGRFTISRDNAKNTVYFQMNSLKPEDTAVYYCNRVYSTSRITQYEFDYWGQGTQVTVSS | low polyreactivity |
| QVQLVDSGGGLVQAGGSLRLSCAASGYTFEIYAIRWYRQAPGKERELVAAITRSGDSTYYADSVKGRFTISRDNSKNTVYLQMNSLKPEDTAVYDCNADYPGQYDSWGQGTQVTVSS | low polyreactivity |
| QVQLVDSGGGLVQAGGSLRLSCASSGNTFAGNARGWYRQAPGTERELVAAISRSGVTTRYADSVKGRFTISRDNAKNTVYLQMNSLKQEDTAVYYCNADPRLRQTRDYWGHGTQVTVSS | high polyreactivity |
| QVQLVDSGGGLVQAGGSLRLSCASSGSTFVLYAMGWYRQAPGKERELVAAITWSGDDTYYADSVKGRFTISRDNAKNTVYLQMNSLKPEDTAVYYCAAAYADWGQGTQVTVSS | low polyreactivity |
| QVQLVDSGGGLVQAGGSLRLSCASSGSTTVLYAKGWYRQAPGKEREMVAAISRSGGSTYYADSVKGRFTISRDNAKYTVYLQMNSLKPEDTAVYYCAARVPFSPYLRLFDYWGQGTQVTVSS | low polyreactivity |
| QVQLVDSGGGLVQAGGSLRLSCATSGYTFKAYAMVWYRQAPGKERELVAGISRSGGSTYYADSVKGRFTISRDNAKNTVYLQINSLKPEDTAVYYCAADSFSCETVVPSVLEFDYWGQGTQVTLSS | low polyreactivity |
| QVQLVDSGGGLVQAGGSLRLSCDASGSILAQYAMGWYRQAPGKEREFVAAISRRGVRTNYADSVKGRFTISRDNAKNTDYLQMNSLKHEDTAVYYCAAALYTPSLNSAFDYWGQGTQVTVSS | high polyreactivity |
| QVQLVDSGGGLVQAGGSLRLSCGASGRIFPYNAMGWYRQAPGKERELVAAINWSGGSTYYADSVKGRFTISRDTAKNTVYLQMNSLKPEDTAVYYCAVKTVRSSSRNYWRQGTQVTVSS | high polyreactivity |
| QVQLVDSGGGLVQAGGSLRLSCHASGRIVTSNAMGWYRQAPGKERELVAAISWSGGSTYYADSVKGRFTISRDNAKNTVYLQINSLKPEDTAVYYCAAYGTKWGRGFYITGYGYWGQGTQVTVSS | low polyreactivity |
